Ends that are not written are not given here.
T1: recombinant human NRP1 (R&D), purified (human, UniProt O14786-2 22-644, limits assumed)
T1 construct: Bought protein; also called purified NRP1; immobilized NRP1
T1 sequence (looked up): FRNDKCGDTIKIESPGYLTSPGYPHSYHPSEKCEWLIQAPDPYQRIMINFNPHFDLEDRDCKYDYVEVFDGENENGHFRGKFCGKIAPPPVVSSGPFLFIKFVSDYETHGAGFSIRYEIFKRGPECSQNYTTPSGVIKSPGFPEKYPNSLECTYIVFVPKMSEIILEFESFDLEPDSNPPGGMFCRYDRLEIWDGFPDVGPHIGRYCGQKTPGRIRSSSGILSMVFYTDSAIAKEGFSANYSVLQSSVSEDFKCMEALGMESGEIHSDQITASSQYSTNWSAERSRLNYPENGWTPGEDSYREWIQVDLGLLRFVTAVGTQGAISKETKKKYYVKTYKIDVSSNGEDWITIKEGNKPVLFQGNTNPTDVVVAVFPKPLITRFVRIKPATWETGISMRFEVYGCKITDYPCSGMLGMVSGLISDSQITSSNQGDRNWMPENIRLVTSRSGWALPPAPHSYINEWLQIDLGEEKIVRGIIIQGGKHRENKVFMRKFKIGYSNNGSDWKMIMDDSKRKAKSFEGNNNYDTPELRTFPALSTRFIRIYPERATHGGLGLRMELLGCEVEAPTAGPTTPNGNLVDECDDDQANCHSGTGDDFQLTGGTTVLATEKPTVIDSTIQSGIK

T2: recombinant human NRP2 Fc chimera (R&D), purified (human, UniProt O60462 23-864)
T2 construct: Bought Fc chimera; also called purified NRP2; neuropilin-2; Fc part of the bought chimera not given; not described
T2 sequence (looked up): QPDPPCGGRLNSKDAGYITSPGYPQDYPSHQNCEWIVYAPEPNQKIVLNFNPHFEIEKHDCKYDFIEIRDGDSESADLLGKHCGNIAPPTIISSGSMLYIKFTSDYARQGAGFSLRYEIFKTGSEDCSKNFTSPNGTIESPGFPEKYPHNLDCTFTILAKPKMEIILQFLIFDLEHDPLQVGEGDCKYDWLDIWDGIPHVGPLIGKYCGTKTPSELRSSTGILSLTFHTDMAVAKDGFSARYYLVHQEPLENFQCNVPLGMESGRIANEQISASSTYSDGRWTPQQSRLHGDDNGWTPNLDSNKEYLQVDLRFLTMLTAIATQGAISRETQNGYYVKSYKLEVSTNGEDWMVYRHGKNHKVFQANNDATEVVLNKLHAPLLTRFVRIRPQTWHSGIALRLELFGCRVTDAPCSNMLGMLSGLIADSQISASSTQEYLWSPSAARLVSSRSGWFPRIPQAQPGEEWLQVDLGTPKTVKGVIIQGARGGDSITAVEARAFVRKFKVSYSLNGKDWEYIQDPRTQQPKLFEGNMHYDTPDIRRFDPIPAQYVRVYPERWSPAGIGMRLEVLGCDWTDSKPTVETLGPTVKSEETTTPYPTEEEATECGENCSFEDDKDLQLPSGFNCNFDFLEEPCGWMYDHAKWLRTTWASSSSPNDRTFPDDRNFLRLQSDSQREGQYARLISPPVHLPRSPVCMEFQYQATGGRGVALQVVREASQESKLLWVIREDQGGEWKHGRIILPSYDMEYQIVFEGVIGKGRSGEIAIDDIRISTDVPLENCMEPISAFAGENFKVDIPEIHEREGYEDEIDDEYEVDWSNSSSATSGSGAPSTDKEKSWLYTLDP

T3: p32 in 4T1 breast tumor extracts (mouse, UniProt O35658 71-278)
T3 construct: Endogenous protein from tumor extract
T3 sequence (looked up): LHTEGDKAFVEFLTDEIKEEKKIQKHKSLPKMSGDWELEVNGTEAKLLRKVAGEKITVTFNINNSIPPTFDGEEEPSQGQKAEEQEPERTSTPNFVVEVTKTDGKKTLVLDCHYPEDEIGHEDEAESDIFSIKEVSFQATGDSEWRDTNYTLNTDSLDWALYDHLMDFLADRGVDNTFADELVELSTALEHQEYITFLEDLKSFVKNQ


Experiments:
[1] = biological target: T1, recombinant human NRP1 (R&D), purified; assay: phage binding to NRP1-coated microtiter wells, plaque titration (FIG. 2)
Experimental: (§1) Microtiter wells (Costar) were coated with 5 μg/mL of purified NRP1 or NRP2, blocked with PBS supplemented with 0.5% BSA and incubated with 10⁸ plaque-forming units (pfu) of phage in 100 μL of PBS/0.05% Tween 20 for 20 h at 37° C. After six washes in PBS/0.05% Tween 20, bound phage was eluted with 200 μL of 1 M Tris-HCl (pH 7.5)/0.5% SDS for 30 min and quantified by a plaque assay (titration).

[2] = biological target: T4, NRP1 on human tumor cells (DU145 prostate carcinoma cells; PPC1 prostate tumor cells) (human, UniProt O14786 22-923); assay: 10^9 pfu phage on cultured PPC1 cells, anti-T7 staining, confocal microscopy
T4 construct: whole, on cells; DU145 express NRP1 but not NRP2; PPC1 express very high NRP1 and low NRP2; also called neuropilin-1; CendR receptor
Experimental: Phage were detected by staining with anti-T7 phage polyclonal antibody. Nuclei were stained with DAPI. […] Cells were co-stained for NRP1 and nuclei were stained with DAPI. […] Non-conjugated neutravidin was used as a control. Nuclei were stained with DAPI. Cells were analyzed by confocal microscopy.

[3] = biological target: T2, recombinant human NRP2 Fc chimera …; assay: phage binding to NRP2-coated microtiter wells, plaque titration (FIG. 3A)
Experimental: B. MDA-MB-435 cells were incubated with phage at 4° C. to assess NRP2 binding. […] Binding is expressed as percentage of binding in control conditions. (mean±SEM; n=4/group; * p<0.05; **, p<0.01).
as §1

[4] = biological target: T3, p32 in 4T1 breast tumor extracts; assay: affinity chromatography of 4T1 tumor extracts on immobilized tLyP-1
[5] = biological target: T4, NRP1 on human tumor cells (DU145 …); assay: phage binding to DU145 cells at 4 C with or without anti-NRP1 (FIG. 1B)

Binder	binding as fold over control (insertless) phage [1]	binding as fold over control (insertless) phage [3]	binding result [5]	other results
CGNKRTRGC (also: cyclic nonapeptide, ring not given here, displayed on T7 phage, LyP-1 is described as a cyclic nonapeptide; also called intact LyP-1) [LyP-1 phage (T7 phage displaying full-length LyP-1, CGNKRTRGC)]	1.6 fold	0.6 fold		binding result [1]: no binding; binding result [2]: no binding; binding result [3]: no binding
CGNKRTR (the coupling is not described) [tLyP-1 affinity matrix (immobilized tLyP-1 peptide)]				binding result [4]: no binding
CGNKRTR (also called CGNKRTR phage; phage tLyP-1) [tLyP-1 phage (T7 phage displaying CGNKRTR, truncated LyP-1)]	119 fold	8 fold		binding as fold over insertless control phage [1]: ~120 fold
CGNKR [CGNKR phage (truncated LyP-1, amino acids 1-5 of SEQ ID NO:10)]			no binding	
RPARPAR [RPARPAR phage (T7 phage displaying the prototypic CendR peptide RPARPAR)]	276 fold	29 fold		binding ratio over the control phage [1]: 280 fold
CGNK [CGNK phage (truncated LyP-1, amino acids 1-4 of SEQ ID NO:10)]			no binding	

Reference: US20150259380A1 (SANFORD BURNHAM MEDICAL RESEARCH INSTITUTE, published 2015)
